Results from paper PMC11220700, “Activation and Purification of ß‐Glucocerebrosidase by Exploiting its Transporter LIMP‐2 – Implications for Novel Treatment Strategies in Gaucher's and Parkinson's Disease” (Advanced Science, 2024).

Test system: wt GCase in HEK 293F supernatant
Assay: GCase activity in supernatant of HEK 293F cells co‐expressing soluble LIMP‐2
Type: cell-based, human
Details: co‐expression with wt GCase, 0‐72 h after transfection, n = 3
Method: HEK 293F cells (ThermoFisher Scientific Inc., Waltham, MA, United States, #R79007) were cultivated in FreeStyle 293 expression medium (ThermoFisher Scientific Inc., Waltham, MA, United States, #12 338 018) in vented flat‐bottom Erlenmeyer flasks (ThermoFisher Scientific Inc., Waltham, MA, United States, #4115‐0125, #4115‐0250, #4115‐0500, #4115‐1000, #4115‐2000) on a MaxQ CO2 Plus orbital shaker (ThermoFisher Scientific Inc., Waltham, MA, United States, #88 881 102) at 125 rpm, 37 °C and 8% CO2. Regularly, the cell count was determined using a Cellometer Auto T4 Plus cell counter (Nexcelom Biocience LLC, Lawrence, Massachusetts, United States). […] For seeding, cells were counted and the desired cell number was transferred to 50 mL tubes. […]
Activity of GCase‐containing samples (recombinant protein, cell lysate, LE fractions, conditioned culture medium) was measured using the synthetic substrate 4‐methylumbelliferyl‐β‐D‐glucopyranoside (4MU, Merck Millipore, Billerica, MA, United States, #M3633). […] GCase activity was quantified via fluorescence of released 4‐methylumbelliferone (endpoint measurement) using an Infinite 200 Pro (TECAN, Männedorf, Switzerland), SpectraMax Gemini (Molecular Devices, San José, CA, United States) or ClarioStar (BMG LABTECH, Ortenberg, Germany) multiplate reader (λ ex: 365 nm; λ em: 445 nm). […]

B1: sLIMP‐2: secreted LIMP‐2 ectodomain, amino acids 36–431, N‐terminal IgK leader sequence, C‐terminal TEV‐cleavable 10xHis tag (protein)
chain: SIEKKIVLRNGTEAFDSWEKPPLPVYTQFYFFNVTNPEEILRGETPRVEEVGPYTYRELRNKANIQFGDNGTTISAVSNKAYVFERDQSVGDPKIDLIRTLNIPVLTVIEWSQVHFLREIIEAMLKAYQQKLFVTHTVDELLWGYKDEILSLIHVFRPDISPYFGLFYEKNGTNDGDYVFLTGEDSYLNFTKIVEWNGKTSLDWWITDKCNMINGTDGDSFHPLITKDEVLYVFPSDFCRSVYITFSDYESVQGLPAFRYKVPAEILANTSDNAGFCIPEGNCLGSGVLNVSICKNGAPIIMSFPHFYQADERFVSAIEGMHPNQEDHETFVDINPLTGIILKAAKRFQINIYVKKLDDFVETGDIRTMVFPVMYLNESVHIDKETASRLKSMINT
modifications: left off: Igκ leader sequence, N-terminal, state not stated | 10xHis (TEV-cleavable), C-terminal, kept
GCase activity in supernatant over time: GCase activity is higher and stable over the course of the measurements
